This note sets out measurements from US4642335A, “Anthracycline compounds bound to hydrophilic polypeptides” (Ajinomoto Co., Inc., priority 1984, dated 1987).

Data set [1] deals with mouse L1210 leukemia. Put plainly: antitumor activity against mouse L1210 leukemia, life prolongation rate. The data set is classed as in vivo. Particulars: once a day for five days starting 24 hours after tumor cell injection, control survival day = 100%. As to the method:
These HB-6 substances were tested for their antitumor activity in terms of mouse L1210 leukemia. L1210 leukemia cells (1×10^5) were abdominally injected to each mouse, and the test sample was administered once a day for consecutive five days, with the first administration being started 24 hours after injection of the tumor cells. The result is summarized in Table 1, in which the antitumor activity of each drug is expressed as life prolongation rate, taking the survival day for the control group as 100%.
These HBW-6 substances were tested for their antitumor activity in terms of mouse L1210 leukemia. L1210 leukemia cells (1×10^5) were abdominally injected to each mouse, and the test sample was administered once a day for consecutive five days, with the first administration being started 24 hours after injection of the tumor cells. The result is summarized in Table 2, in which the antitumor activity of each drug is expressed as life prolongation rate, taking the survival day for the control group as 100%.

Data set [2] deals with Bacillus subtilis ATCC6633. The data set is described as follows: antibacterial activity, MIC, Bacillus subtilis ATCC6633. The data set is classed as cell-based.
Data set [3] concerns Micrococcus luteus ATCC9341. The data set is described as follows: antibacterial activity, MIC, Micrococcus luteus ATCC9341. The data set is classed as cell-based.
The subject of data set [4] is Pseudomonas aeruginosa ATCC10145. Put plainly: antibacterial activity, MIC, Pseudomonas aeruginosa ATCC10145. The data set is classed as cell-based.
Data set [5] is described as follows: Solubility. Particulars: water and organic solvents. The data set is classed as physicochemical.
Data set [6] can be described thus: Isoelectric point. The data set is classed as physicochemical.

In general, MIC refers to the lowest concentration that inhibits growth of the organism.

Converted amounts (≈) assume the structure as drawn. Where two headings read alike, the source gives them in different places.

Take `COc1cccc2c1C(=O)c1c(O)c3c(c(O)c1C2=O)C[C@@](O)(C(C)=O)C[C@@H]3O[C@H]1C[C@H](N)[C@H](O)[C@H](C)O1` [Daunomycin, daunomycin, reference compound]: the “Life Prolongation Rate” value in data set [1] (dose 2 mg/Kg) is given as 145%. For the same molecule, the MIC is 5.8 µg/mL (≈ 11 µM) in data set [2] (read-out: MIC), 1.2 µg/mL (≈ 2.27 µM) in data set [3] (read-out: MIC) and over 10 µg/mL in data set [4] (read-out: MIC).

B1: NCS-apoprotein: methanol-insoluble fraction (protein moiety) of neocarzinostatin (protein, UniProt P0A3R9 35-147, looked up)
Neocarzinostatin: AAPTATVTPSSGLSDGTVVKVAGAGLQAGTAYDVGQCAWVDTGVLACNPADFSSVTADANGSASTSLTVRRSFEGFLFDGTRWGTVDCTTAACQVGLSDAAGNGPEGVAISFN
For B1, the “Life Prolongation Rate” value in data set [1] (dose 2 mg/Kg) stood at 101%. Also, the MIC in data set [2], in data set [3] and in data set [4] was over 100 µg/mL each time. In data set [5], the Solubility entry was “Soluble in water; insoluble in methanol, ethanol, acetone, butanol and propanol”. This molecule returned an Isoelectric point in data set [6] of 3.2 pH.

B2: HBW-21(A): NCS-apoprotein and aclacinomycin A bound together, molar ratio 1:1 (conjugate, UniProt P0A3R9 35-147, looked up)
Neocarzinostatin: B1 Neocarzinostatin
modifications: aclacinomycin A conjugate, 1:1
Take B2: the “Life Prolongation Rate” value in data set [1] (dose 1 mg/Kg) is recorded as 135%.

B3: HBW-21(B): NCS-apoprotein and aclacinomycin A bound together, molar ratio 1:5 (conjugate, UniProt P0A3R9 35-147, looked up)
Neocarzinostatin: B1 Neocarzinostatin
modifications: complex with aclacinomycin A, 1:5
Regarding B3, the “Life Prolongation Rate” value in data set [1] (dose 1 mg/Kg) worked out at 162%.

B4: HBW-10(A): NCS-apoprotein and daunomycin bound through hydrogen bond and/or hydrophobic bond, molar ratio 1:1 (conjugate, UniProt P0A3R9 35-147, looked up)
Neocarzinostatin: B1 Neocarzinostatin
modifications: noncovalent complex with daunomycin, 1:1
For the molecule B4, the “Life Prolongation Rate” value in data set [1] (dose 1 mg/Kg) is given as 260%. For the same molecule, the MIC in data set [2] was 2.3 µg/mL; in data set [3] it was 0.30 µg/mL; in data set [4], over 10 µg/mL.
